{
  "source": "the nanobody polyreactivity screen of Harvey et al. (2022)",
  "data": [
    {"assay": "yeast display, Sf9 membrane polyspecificity reagent, FACS + sequencing; frameworks hold sequencing errors", "in_short": "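After 36–48 hours of galactose induction, yeast (Saccharomyces cerevisiae BJ5465) displaying a synthetic nanobody library were stained at 4 °C for 1 hour with 10% biotinylated, detergent-solubilized Sf9 membrane reagent. Streptavidin microbeads enriched the stained cells before FACS sorting into low and high (top ~1%) gates on anti-HA and streptavidin fluorescence. Each clone's polyreactivity label reflects its gate of origin.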", "values": [
      {"sequence": "QVQLEVSGGGLVQAGGSLLLSCAASGFTFYFYAMGWSRQATGTERELVAAISRSGSRTYYADSVKGRFTISRDNAKNTVYLQMNSLKPEDTAVYYCARVRPRGLYFVLHYDYWGQGTHVTVSS", "polyreactivity (PSR sort gate)": "high polyreactivity"},
      {"sequence": "QVQLGDSGGGLGQAGGSLRLSCAASGSTFASDTMGWYRQEPGKERYLVATISRPGGTTNYADSVKGRFTISRDNAKNTVYLQMNSLKPEDTAVFDCARRYPRYDFAYGYDYWGQGTQGTVSS", "polyreactivity (PSR sort gate)": "high polyreactivity"},
      {"sequence": "QVQLGESGAGIVQAGGSLRLSCAASGSTFQTYAMGWYRQAPGKERELVAAITWRGGSTYYAHSVKGRFTISRDNAKNTVYLQMNSLKPEDTAVYYCAAKWLGAHDHRAAYDSWGQGTQVTVSS", "polyreactivity (PSR sort gate)": "low polyreactivity"},
      {"sequence": "QVQLGESGGGLLQAGGSVRLSCAASGRTITANAMGLYRQAPGKERELFATISTRGGRTYYADSVKGRFTISRDNSKNTVYLQMHSLKPEETAVFYGAFTIRAKYTLKEDYWGQGTQVTVSS", "polyreactivity (PSR sort gate)": "low polyreactivity"},
      {"sequence": "QVQLGESGGGLVQAGGRLRLSCAASGYTFGYYTMGWYRQAPGKERELVASIDSGGGTNYADSVKGRFTISRDNAKNTVYLQMNSVKAEDTAVYYCAAESPLYWVDDFESGWRYYYWGQGTQVTVSS", "polyreactivity (PSR sort gate)": "low polyreactivity"},
      {"sequence": "QVQLGESGGGLVQAGGSHRLICAATASTLGGYAMGWYRQAPGTERELVAAITRSGGSTYYADSVKGRFTISRDNAKNTVYLQMNSLKPEDTSVNYCGADRYSYFNIGYDYWGQGTQVTVSS", "polyreactivity (PSR sort gate)": "low polyreactivity"},
      {"sequence": "QVQLGESGGGLVQAGGSLGLSCAASGLTFIVYAMGWYRQAPGKERELVADITWSGGSTYYADSVKGRFTISRDNAKNTVYLQMNSLKPEDTAVYYCNRQSGNIMDYWGQGTQVTVSS", "polyreactivity (PSR sort gate)": "low polyreactivity"},
      {"sequence": "QVQLGESGGGLVQAGGSLRLRCAASGRIFNGYTMGWYRQAPGKERELVAAISRGGSTYYADSVKGRLTISRDNAKNTVYLLMNSLKPEDTAVYYCAASHRFGYEYWGHGTQVTVSS", "polyreactivity (PSR sort gate)": "high polyreactivity"},
      {"sequence": "QVQLGESGGGLVQAGGSLRLSCAAAGFIFRPYAMGWYRQAPGKERELVAVISNSGGSSNYADSVKGRFSISRENAKNTVYLQMNSLKPEDTAVDYCNALVYVPHWWTYYDWGQGTQVTVSS", "polyreactivity (PSR sort gate)": "high polyreactivity"},
      {"sequence": "QVQLGESGGGLVQAGGSLRLSCAACGSIFKPYAMGWYRQAPGTERELVAAISGIGGSTYYADSVKGRFTISRDTAKNTVYLQMNSLTPEDTAVYYCAADTFFKIFSEYNYWGQGTQVTLSS", "polyreactivity (PSR sort gate)": "high polyreactivity"},
      {"sequence": "QVQLGESGGGLVQAGGSLRLSCAASGFIFGYYAMGWYRQAPGKERELVAAINYNDDSTYYADSVKGRFTISRDNAKNTVYLQMNSLKPEDTAVYYCAAGVWYGYYVSIYLDYDYWGQGTQVTLSS", "polyreactivity (PSR sort gate)": "low polyreactivity"},
      {"sequence": "QVQLGESGGGLVQAGGSLRLSCAASGGIFIGNAMGWYRQAPGKERELVAAISFSGGSTYYADSVKGRFTISRDNAKNTVYLQMNSLKPEDTAVYYCARRIGHGSRPYWLETWRYPYDYWGQGTQVTVSS", "polyreactivity (PSR sort gate)": "low polyreactivity"},
      {"sequence": "QVQLGESGGGLVQAGGSLRLSCAASGGILGYNAMGWYRQAPGKERELVATINWSGGSTYADSVKGRFTISRDNAKNTVYLQRNSLKPEDTADSYCNAVRKYWRQGTQVTVSS", "polyreactivity (PSR sort gate)": "low polyreactivity"},
      {"sequence": "QVQLGESGGGLVQAGGSLRLSCAASGIIFGYYAMGWYRQAPGKERELVAAITWSGGSTYYADSVKGRFTISRDNAKYTVYLQMNSLKPEDTAVYYCAASAYVQPYDYWGQGTQVTVSS", "polyreactivity (PSR sort gate)": "high polyreactivity"},
      {"sequence": "QVQLGESGGGLVQAGGSLRLSCAASGITFNGYAMGWSRQAPGKERQLVASAIRGTSGSTYYADSVKGRFTISRDNAKNTDYLQMNSLKPEDTTVYYCNADIVIQGVIYYYRNFEYWGQGTQVTVSS", "polyreactivity (PSR sort gate)": "low polyreactivity"},
      {"sequence": "QVQLGESGGGLVQAGGSLRLSCAASGLTFYLYAMGWYRQAPGKERELVAAITTSGGSTYYADSVKGRFTISRDTAKNTVYLQMNSLKPEDTAVYYCATQGALRGYGYWGQGTQVTVSS", "polyreactivity (PSR sort gate)": "high polyreactivity"},
      {"sequence": "QVQLGESGGGLVQAGGSLRLSCAASGLTFYLYVMGWYRQAPGTERELVAAISRRGGSTYYADSVKGRFTISRDNAKNTVYLQMNSLNPEDTAVYYCAASVYGTYRGIQYGYWGQGTQVTVSS", "polyreactivity (PSR sort gate)": "high polyreactivity"},
      {"sequence": "QVQLGESGGGLVQAGGSLRLSCAASGRIFQHNTMGWYRQAPGKEREFVAAIRRSGGSTYYADSVKGRFTISRDNAKNTVYLQMNSLKPEDTAVYYCAARDYPTGTRRWGGGDSWGQGTQVTLSS", "polyreactivity (PSR sort gate)": "low polyreactivity"},
      {"sequence": "QVQLGESGGGLVQAGGSLRLSCAASGRIFRTNAMGWYRQAPGKERELVAAITFSGGGTYYADSVKGRFTISRDNAKNTVYLQMNSLKPEDTAVYYCATDWYYEYYDWGQGTQVTVSS", "polyreactivity (PSR sort gate)": "low polyreactivity"},
      {"sequence": "QVQLGESGGGLVQAGGSLRLSCAASGRTLSYYAMGWYRPAPGNDRELVAAISGSAGSTYYADSVKGRFTISRDNAKNTVYLQMNSLKPEDTAVYYCAAYIYSYDEGYYWGQGTQVTVSS", "polyreactivity (PSR sort gate)": "high polyreactivity"},
      {"sequence": "QVQLGESGGGLVQAGGSLRLSCAASGSIFGGNAMGWYRQAPGKERELVAAISTSGSTTYYADSVKGRFTISRDNAKNTVYLQMNSLKPEDTAVYYCARRGGVRGYYGGRRSKMDYWGQGTQVTVSS", "polyreactivity (PSR sort gate)": "low polyreactivity"},
      {"sequence": "QVQLGESGGGLVQAGGSLRLSCAASGSTRGYTMGWYRQAPGKERELVAVISYSGGRTYYADSVKGRFTISRDNAKNTVYLQMNSLKPEDTAVYYCNAYYYQFRGIRVSGGYWGQGTQVTVSS", "polyreactivity (PSR sort gate)": "high polyreactivity"},
      {"sequence": "QVQLGESGGGLVQAGGSLRLSCAPSGSPFPYYVMGWYRPAPGKERELVAAISKSGGSTYYADSVKGRFTISRDNAKNTVYLQMNSLKPEDPAVYYCAAAIRSYRGPRFNYWGQGTQVTVSS", "polyreactivity (PSR sort gate)": "high polyreactivity"},
      {"sequence": "QVQLGESGGGLVQAGGSLRLSSAASGRTFGSNAMGWYRQAPGKERELVAASSSTVSTNYADSEKGRFTISRDNAKNTVYLQMNSLKPEDTAVYYCNVTRHYSYVSEYDYWGQGTQVTVSS", "polyreactivity (PSR sort gate)": "low polyreactivity"},
      {"sequence": "QVQLGESGGGLVQAGGSLRLTCAASGSIFRYYAMGWYRQAPGKERELVAAIRWSGGRTYYADSVKGRFTISRDNAKNTVYLQMNSLKPEDTAVYDCAADPPHYKPNVRYYYWGQGTQVTVSS", "polyreactivity (PSR sort gate)": "high polyreactivity"},
      {"sequence": "QVQLGESGGGLVQAGGSVRLSCAASGRTFDTNAMGWYRQAPGKERELVAAISWSAGRTYYADSVKGRFTISRDNAKNTVYLQMNSLKPEDTAVYYCAARPPFIAYSWQKHGYYWGQGTQVTVSS", "polyreactivity (PSR sort gate)": "low polyreactivity"},
      {"sequence": "QVQLGESGGGLVQAGGSVRLSCAASGSTFWVNAMGWYRQAPGKERELVAAISNSGGSTYYADSVKGRFTISRDNAKNTVYLQMNSLKPEDTAVYYCAAAGGVDYDYWGQGTQVTVSS", "polyreactivity (PSR sort gate)": "low polyreactivity"},
      {"sequence": "QVQLGESGGGLVQEGGSLRLSCAASGSTLQDYDMGWYRQAPGKERELVAAITWSTGTTYYADSVKGRFTISRDNAKNTVYLQMNSLKPEDPAVYYCAVDSYYRATYTYRYDYWGLGTQVTVSS", "polyreactivity (PSR sort gate)": "low polyreactivity"},
      {"sequence": "QVQLGESGGRKVQPGGSLRLSCAASGYTIAWYVMGWSRQAPGKESELVAAISWSGGRTYYADSVKGRFTISRDNAKNTVYLQMNSLNPQDTAVYYCNAYWNPASKYDYWGQGTQVTVSS", "polyreactivity (PSR sort gate)": "high polyreactivity"},
      {"sequence": "QVQLGESGRGLVPAGGSLRLSCASSGSIFDRNARGWYRQAPGKERELVAAISSRGGSTYYADSVKGRFTISRDNAKNTVYLQMNSLKPEDTAVYYCNKVRTYGYDYWGQGTQVTVSS", "polyreactivity (PSR sort gate)": "high polyreactivity"}
    ]}
  ]
}
